# Measured values from the supplement of paper PMC9112550, “Optimization of the antimicrobial peptide Bac7 by deep mutational scanning” (BMC Biology, 2022).
# System: Escherichia coli TOP10
# Experiment: shrunken log2 fold change of peptide-encoding DNA abundance (4.5 h post-induction vs induction); higher = less antimicrobial activity (less host growth inhibition)
# Conditions: time post-induction: 4.5 h; library: site-saturation at positions 5, 18, 19, 20
# 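Also: peptides expressed intracellularly from a pBAD plasmid library in pooled LB shake-flask culture, induced with 0.3% L-arabinose, DNA abundance read by NGS, three biological replicates, DESeq2 with apeglm shrinkage.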
row,Sequence,shrunken log2 fold change
1,RRIRMRPPRLPRPRPRPMIAPRP,0.0314
2,RRIRFRPPRLPRPRPRPTFAPRP,0.0698
3,RRIRGRPPRLPRPRPRPMGSPRP,-0.0284
4,RRIRNRPPRLPRPRPRPAWKPRP,0.122
5,RRIRMRPPRLPRPRPRPWLSPRP,0.0302
6,RRIRWRPPRLPRPRPRPAMTPRP,0.299
7,RRIRRRPPRLPRPRPRPFDLPRP,0.0765
8,RRIRPRPPRLPRPRPRPIDRPRP,-0.00145
9,RRIRWRPPRLPRPRPRPNHHPRP,-0.457
10,RRIRWRPPRLPRPRPRPNGNPRP,0.0106
11,RRIRGRPPRLPRPRPRPEICPRP,1.73
12,RRIRKRPPRLPRPRPRPEPGPRP,0.608
13,RRIRERPPRLPRPRPRPFYQPRP,-0.0388
14,RRIRCRPPRLPRPRPRPPVQPRP,0.652
15,RRIRSRPPRLPRPRPRPMKLPRP,-0.0255
16,RRIRFRPPRLPRPRPRPPKVPRP,0.0991
17,RRIRRRPPRLPRPRPRPRYPPRP,0.252
18,RRIRVRPPRLPRPRPRPFICPRP,-0.331
19,RRIRGRPPRLPRPRPRPTYWPRP,0.186
20,RRIRWRPPRLPRPRPRPSAHPRP,0.062
21,RRIRFRPPRLPRPRPRPMDTPRP,-0.165
22,RRIRMRPPRLPRPRPRPYRWPRP,-0.00788
23,RRIRHRPPRLPRPRPRPHQQPRP,0.0121
24,RRIRERPPRLPRPRPRPLFDPRP,-0.581
25,RRIRIRPPRLPRPRPRPLGEPRP,-0.277

row,Sequence,shrunken log2 fold change
1,RRIRRRPPRLPRPRPRPITFPRP,0.058
2,RRIRMRPPRLPRPRPRPYCHPRP,-0.545
3,RRIRFRPPRLPRPRPRPKMRPRP,0.223
4,RRIRMRPPRLPRPRPRPNQYPRP,-0.218
5,RRIRPRPPRLPRPRPRPLVPPRP,0.125
6,RRIRERPPRLPRPRPRPLLEPRP,0.105
7,RRIRCRPPRLPRPRPRPDIDPRP,-0.182
8,RRIRWRPPRLPRPRPRPDYAPRP,-0.0174
9,RRIRERPPRLPRPRPRPCPGPRP,-0.451
10,RRIRARPPRLPRPRPRPEKVPRP,0.131
11,RRIRTRPPRLPRPRPRPRAKPRP,0.346
12,RRIRWRPPRLPRPRPRPLNAPRP,0.438
13,RRIRLRPPRLPRPRPRPMQTPRP,0.0393
14,RRIRYRPPRLPRPRPRPFPFPRP,-0.271
15,RRIRGRPPRLPRPRPRPMHDPRP,0.361
16,RRIRERPPRLPRPRPRPNCEPRP,-0.155
17,RRIRLRPPRLPRPRPRPRQMPRP,0.208
18,RRIRWRPPRLPRPRPRPQTYPRP,-1.17
19,RRIRIRPPRLPRPRPRPWRKPRP,-0.143
20,RRIRYRPPRLPRPRPRPGCYPRP,-0.8
21,RRIRMRPPRLPRPRPRPPKCPRP,0.0414
22,RRIRGRPPRLPRPRPRPLHTPRP,0.851
23,RRIRRRPPRLPRPRPRPECWPRP,0.958
24,RRIRQRPPRLPRPRPRPLGLPRP,0.103
25,RRIRPRPPRLPRPRPRPNYHPRP,-0.607

row,Sequence,shrunken log2 fold change
1,RRIRNRPPRLPRPRPRPGPMPRP,-0.0257
2,RRIRERPPRLPRPRPRPLRKPRP,0.722
3,RRIRSRPPRLPRPRPRPSGEPRP,0.406
4,RRIRKRPPRLPRPRPRPHVPPRP,0.207
5,RRIRPRPPRLPRPRPRPSKRPRP,-0.00797
6,RRIRVRPPRLPRPRPRPKPDPRP,0.206
7,RRIRTRPPRLPRPRPRPDGWPRP,0.468
8,RRIRTRPPRLPRPRPRPWDGPRP,0.0729
9,RRIRLRPPRLPRPRPRPSEQPRP,-0.153
10,RRIRHRPPRLPRPRPRPDHHPRP,0.0587
11,RRIRDRPPRLPRPRPRPAIWPRP,0.24
12,RRIRWRPPRLPRPRPRPTTHPRP,0.163
13,RRIRFRPPRLPRPRPRPIKMPRP,-0.243
14,RRIRVRPPRLPRPRPRPGWHPRP,0.132
15,RRIRFRPPRLPRPRPRPDTDPRP,0.479
16,RRIRDRPPRLPRPRPRPNHKPRP,-0.661
17,RRIRWRPPRLPRPRPRPQLDPRP,0.0393
18,RRIRFRPPRLPRPRPRPQCQPRP,-0.0517
19,RRIRERPPRLPRPRPRPDERPRP,0.109
20,RRIRHRPPRLPRPRPRPVYLPRP,-0.406
21,RRIRERPPRLPRPRPRPWKAPRP,0.0158
22,RRIRHRPPRLPRPRPRPPSTPRP,-0.0909
23,RRIRYRPPRLPRPRPRPSIMPRP,-1.54
24,RRIRARPPRLPRPRPRPVYTPRP,-0.159
25,RRIRARPPRLPRPRPRPIWQPRP,0.166

row,Sequence,shrunken log2 fold change
1,RRIRIRPPRLPRPRPRPQCKPRP,-0.532
2,RRIRDRPPRLPRPRPRPEVWPRP,1.75
3,RRIRLRPPRLPRPRPRPHNCPRP,-0.192
4,RRIRQRPPRLPRPRPRPDFKPRP,-0.229
5,RRIRVRPPRLPRPRPRPMQCPRP,0.0658
6,RRIRYRPPRLPRPRPRPGQAPRP,0.0475
7,RRIRGRPPRLPRPRPRPGSWPRP,0.938
8,RRIRKRPPRLPRPRPRPEMNPRP,2.14
9,RRIRCRPPRLPRPRPRPMHVPRP,0.0371
10,RRIRWRPPRLPRPRPRPYTNPRP,-0.993
11,RRIRSRPPRLPRPRPRPNKKPRP,-0.194
12,RRIRYRPPRLPRPRPRPHWRPRP,-0.0836
13,RRIRHRPPRLPRPRPRPHSYPRP,-0.191
14,RRIRSRPPRLPRPRPRPWETPRP,-0.0029
15,RRIRFRPPRLPRPRPRPVYSPRP,-0.12
16,RRIRGRPPRLPRPRPRPPAMPRP,1.23
17,RRIRKRPPRLPRPRPRPAINPRP,0.126
18,RRIRNRPPRLPRPRPRPHPTPRP,-0.0363
19,RRIRRRPPRLPRPRPRPCDYPRP,-0.489
20,RRIRSRPPRLPRPRPRPVIVPRP,-0.191
21,RRIRNRPPRLPRPRPRPFTMPRP,-0.149
22,RRIRERPPRLPRPRPRPVWTPRP,-0.00115
23,RRIRLRPPRLPRPRPRPTRPPRP,0.828
24,RRIRRRPPRLPRPRPRPKQHPRP,0.302
25,RRIRGRPPRLPRPRPRPTNMPRP,0.316

row,Sequence,shrunken log2 fold change
1,RRIRVRPPRLPRPRPRPCNNPRP,0.0786
2,RRIRYRPPRLPRPRPRPWYWPRP,-0.0383
3,RRIRLRPPRLPRPRPRPHMSPRP,-0.325
4,RRIRSRPPRLPRPRPRPNDEPRP,-0.276
5,RRIRSRPPRLPRPRPRPIGVPRP,0.049
6,RRIRSRPPRLPRPRPRPQLKPRP,0.0348
7,RRIRKRPPRLPRPRPRPLAWPRP,0.928
8,RRIRARPPRLPRPRPRPQGDPRP,0.207
9,RRIRPRPPRLPRPRPRPMQPPRP,0.234
10,RRIRPRPPRLPRPRPRPGIKPRP,-0.0194
11,RRIRKRPPRLPRPRPRPLNLPRP,-0.123
12,RRIRGRPPRLPRPRPRPVNFPRP,0.44
13,RRIRTRPPRLPRPRPRPKVDPRP,0.195
14,RRIRLRPPRLPRPRPRPDQTPRP,0.0206
15,RRIRTRPPRLPRPRPRPEFWPRP,0.445
16,RRIRGRPPRLPRPRPRPNCKPRP,0.21
17,RRIRPRPPRLPRPRPRPIDWPRP,0.272
18,RRIRDRPPRLPRPRPRPCRPPRP,0.0754
19,RRIRQRPPRLPRPRPRPWSRPRP,0.00812
20,RRIRARPPRLPRPRPRPYCTPRP,-0.0621
21,RRIRGRPPRLPRPRPRPGPKPRP,0.808
22,RRIRYRPPRLPRPRPRPWFHPRP,-0.17
23,RRIRARPPRLPRPRPRPFWLPRP,0.0704
24,RRIRIRPPRLPRPRPRPVPTPRP,0.0576
25,RRIRVRPPRLPRPRPRPMVIPRP,0.0224

row,Sequence,shrunken log2 fold change
1,RRIRARPPRLPRPRPRPNMLPRP,-0.424
2,RRIRMRPPRLPRPRPRPHCIPRP,-0.0281
3,RRIRDRPPRLPRPRPRPMSEPRP,-0.00582
4,RRIRDRPPRLPRPRPRPPYPPRP,0.109
5,RRIRWRPPRLPRPRPRPLREPRP,0.125
6,RRIRGRPPRLPRPRPRPGEEPRP,0.965
7,RRIRQRPPRLPRPRPRPIMDPRP,-0.179
8,RRIRCRPPRLPRPRPRPECRPRP,0.0543
9,RRIRMRPPRLPRPRPRPMFAPRP,0.304
10,RRIRMRPPRLPRPRPRPLKPPRP,0.528
11,RRIRDRPPRLPRPRPRPGLVPRP,0.644
12,RRIRTRPPRLPRPRPRPLRVPRP,0.767
13,RRIRVRPPRLPRPRPRPYQLPRP,-0.228
14,RRIRGRPPRLPRPRPRPTGGPRP,0.887
15,RRIRGRPPRLPRPRPRPQLQPRP,0.577
16,RRIRARPPRLPRPRPRPTQYPRP,0.116
17,RRIRCRPPRLPRPRPRPTSCPRP,-0.0641
18,RRIRGRPPRLPRPRPRPHVFPRP,0.162
19,RRIRPRPPRLPRPRPRPPSYPRP,-0.147
20,RRIRDRPPRLPRPRPRPCSEPRP,0.283
21,RRIRNRPPRLPRPRPRPLQGPRP,0.0149
22,RRIRVRPPRLPRPRPRPEEIPRP,-0.0172
23,RRIRPRPPRLPRPRPRPACLPRP,0.0505
24,RRIRWRPPRLPRPRPRPSEYPRP,-0.221
25,RRIRQRPPRLPRPRPRPDALPRP,-0.0392
